Assay results from patent US20030108554A1 (published 2003).

Key:
DOC1-related protein = biological target: T1, DOC1-related protein (human, UniProt Q4L180 241-1128); assay: yeast two-hybrid
T1 sequence: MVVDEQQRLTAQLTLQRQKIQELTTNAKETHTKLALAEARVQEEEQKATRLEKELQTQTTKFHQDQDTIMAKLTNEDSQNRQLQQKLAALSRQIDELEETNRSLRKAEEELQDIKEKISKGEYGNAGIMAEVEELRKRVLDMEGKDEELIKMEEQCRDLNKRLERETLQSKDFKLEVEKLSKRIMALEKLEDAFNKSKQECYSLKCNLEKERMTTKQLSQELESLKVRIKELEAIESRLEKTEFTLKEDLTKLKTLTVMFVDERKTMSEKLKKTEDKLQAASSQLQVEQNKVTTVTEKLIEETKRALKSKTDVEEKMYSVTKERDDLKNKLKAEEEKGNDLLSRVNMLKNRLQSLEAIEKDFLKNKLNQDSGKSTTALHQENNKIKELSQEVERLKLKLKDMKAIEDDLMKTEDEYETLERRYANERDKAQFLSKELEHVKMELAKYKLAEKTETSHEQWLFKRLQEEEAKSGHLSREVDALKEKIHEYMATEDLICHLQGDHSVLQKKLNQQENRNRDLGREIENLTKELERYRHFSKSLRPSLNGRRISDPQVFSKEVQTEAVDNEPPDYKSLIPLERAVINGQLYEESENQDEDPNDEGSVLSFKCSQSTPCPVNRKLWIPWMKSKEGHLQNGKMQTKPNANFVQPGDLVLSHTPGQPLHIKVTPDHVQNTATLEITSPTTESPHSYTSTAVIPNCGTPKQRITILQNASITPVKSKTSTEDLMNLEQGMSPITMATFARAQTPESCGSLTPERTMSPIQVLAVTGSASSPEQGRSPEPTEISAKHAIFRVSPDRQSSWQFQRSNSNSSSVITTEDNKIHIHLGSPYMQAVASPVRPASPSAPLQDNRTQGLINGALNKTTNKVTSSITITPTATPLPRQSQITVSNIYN

[1] = biological target: T2, GIP130b with deletion of the N terminal 240-residues (human, UniProt Q4L180 241-1128); assay: yeast two-hybrid
T2 sequence: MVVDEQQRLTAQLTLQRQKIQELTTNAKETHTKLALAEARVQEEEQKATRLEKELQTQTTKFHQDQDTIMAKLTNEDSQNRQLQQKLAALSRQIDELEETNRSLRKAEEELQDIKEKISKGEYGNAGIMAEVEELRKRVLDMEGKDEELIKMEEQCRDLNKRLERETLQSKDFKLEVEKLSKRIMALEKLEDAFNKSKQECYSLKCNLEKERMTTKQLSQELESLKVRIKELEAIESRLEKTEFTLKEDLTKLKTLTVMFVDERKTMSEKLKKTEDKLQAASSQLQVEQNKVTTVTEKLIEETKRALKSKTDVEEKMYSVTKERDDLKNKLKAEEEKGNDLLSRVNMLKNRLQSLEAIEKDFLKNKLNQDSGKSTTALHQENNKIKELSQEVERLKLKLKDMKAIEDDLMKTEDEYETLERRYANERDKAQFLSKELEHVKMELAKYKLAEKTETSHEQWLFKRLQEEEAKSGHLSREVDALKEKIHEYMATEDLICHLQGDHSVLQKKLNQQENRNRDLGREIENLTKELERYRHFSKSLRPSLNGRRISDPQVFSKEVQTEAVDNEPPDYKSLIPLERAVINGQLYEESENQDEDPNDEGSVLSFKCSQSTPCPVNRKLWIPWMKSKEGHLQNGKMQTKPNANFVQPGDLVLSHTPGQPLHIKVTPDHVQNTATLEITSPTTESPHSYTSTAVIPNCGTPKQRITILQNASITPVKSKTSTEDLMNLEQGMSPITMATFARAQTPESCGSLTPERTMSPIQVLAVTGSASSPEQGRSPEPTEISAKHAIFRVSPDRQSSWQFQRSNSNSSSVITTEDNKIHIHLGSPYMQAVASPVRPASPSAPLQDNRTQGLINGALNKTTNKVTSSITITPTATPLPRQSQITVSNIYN

GIP130c = biological target: T3, GIP130c (human, UniProt Q4L180 1-1128); assay: yeast two-hybrid and three-hybrid (conclusion)
T3 construct: Full length; tested as GAL4 domain fusion in yeast two-hybrid
T3 sequence: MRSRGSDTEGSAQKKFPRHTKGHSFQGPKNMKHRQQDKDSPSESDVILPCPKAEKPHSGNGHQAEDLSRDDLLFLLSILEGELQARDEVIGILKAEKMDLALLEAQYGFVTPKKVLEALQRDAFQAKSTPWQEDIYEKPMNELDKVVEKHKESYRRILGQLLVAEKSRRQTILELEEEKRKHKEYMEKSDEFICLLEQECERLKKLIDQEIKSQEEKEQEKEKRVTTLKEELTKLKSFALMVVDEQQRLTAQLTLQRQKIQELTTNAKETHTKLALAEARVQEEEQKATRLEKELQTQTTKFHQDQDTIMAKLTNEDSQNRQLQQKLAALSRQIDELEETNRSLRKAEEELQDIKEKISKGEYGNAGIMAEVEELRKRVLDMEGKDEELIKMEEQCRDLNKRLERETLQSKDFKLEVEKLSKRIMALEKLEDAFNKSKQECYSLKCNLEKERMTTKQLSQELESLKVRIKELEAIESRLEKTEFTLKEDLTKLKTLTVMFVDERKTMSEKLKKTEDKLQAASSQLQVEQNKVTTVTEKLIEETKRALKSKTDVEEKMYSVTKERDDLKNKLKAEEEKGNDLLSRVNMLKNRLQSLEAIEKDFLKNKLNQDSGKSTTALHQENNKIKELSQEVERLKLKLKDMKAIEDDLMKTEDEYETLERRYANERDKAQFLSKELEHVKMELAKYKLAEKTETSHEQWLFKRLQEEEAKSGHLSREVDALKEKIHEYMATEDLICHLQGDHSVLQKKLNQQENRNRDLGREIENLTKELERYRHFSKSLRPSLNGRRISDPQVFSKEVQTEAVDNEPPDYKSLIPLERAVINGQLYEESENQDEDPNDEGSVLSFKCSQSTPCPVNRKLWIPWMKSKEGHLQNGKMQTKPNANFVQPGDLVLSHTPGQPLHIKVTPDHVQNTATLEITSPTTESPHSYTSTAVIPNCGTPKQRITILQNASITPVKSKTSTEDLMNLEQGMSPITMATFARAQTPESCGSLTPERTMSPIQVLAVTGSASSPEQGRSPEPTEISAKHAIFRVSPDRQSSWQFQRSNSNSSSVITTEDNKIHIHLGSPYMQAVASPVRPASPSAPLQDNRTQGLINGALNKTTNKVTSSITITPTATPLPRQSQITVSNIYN
Experimental: Accordingly, we have observed with a yeast three-hybrid system that GPBP expression efficiently impairs both I-20 and GIP90 aggregation, and that I-20 and GIP90 efficiently impair GPBP aggregation.
Deletion mutants were obtained using specific primers and PCR, followed by cloning of the resulting cDNAs in the pGBT9 and pGAD424 vectors. The assays were performed in SFY526 or HF7c Saccharomyces cerevisiae strains, with pGBT9 as GAL4 binding domain vector and pGAD424 as GAL4 activation domain vector, by the lift colony assay procedure. Briefly, the yeast cells were co-transformed with constructs of both binding domain and activation domain vectors, and the co-transformants were selected in medium deficient in both tryptophan and leucine. After five days of incubation at 30° C. the colonies were tested for the expression of β-galactosidase with X-Gal substrate (0.75 mg/ml). […] When the assays were performed with the HF7c strain, the interactions were assessed by the lift colony assay procedure and by growth in medium deficient in histidine, tryptophan and leucine. For yeast three-hybrid system, we used the pBRIDGE vector, which allows the conditional expression of a third protein apart from the usual GAL4 binding and activation domain-fusion proteins of the two-hybrid system. In this case, the expression of GPBP or I-20 or GIP90 was driven by Met25 promoter, active in absence of methionine. In these experiments, the transformed SFY526 cells were plated in medium deficient in tryptophan, leucine and methionine, and subjected to the colony lift assay after five days at 30° C. In the case of the strain HF7c the colonies grown in the cited plates were streaked on medium with the additional deficiency of histidine.

B1: Goodpasture antigen binding protein (GPBP) (enzyme, UniProt Q9Y5P4 1-624, looked up)
chain: MSDNQSWNSSGSEEDPETESGPPVERCGVLSKWTNYIHGWQDRWVVLKNNALSYYKSEDETEYGCRGSICLSKAVITPHDFDECRFDISVNDSVWYLRAQDPDHRQQWIDAIEQHKTESGYGSESSLRRHGSMVSLVSGASGYSATSTSSFKKGHSLREKLAEMETFRDILCRQVDTLQKYFDACADAVSKDELQRDKVVEDDEDDFPTTRSDGDFLHSTNGNKEKLFPHVTPKGINGIDFKGEAITFKATTAGILATLSHCIELMVKREDSWQKRLDKETEKKRRTEEAYKNAMTELKKKSHFGGPDYEEGPNSLINEEEFFDAVEAALDRQDKIEEQSQSEKVRLHWPTSLPSGDAFSSVGTHRFVQKPYSRSSSMSSIDLVSASDDVHRFSSQVEEMVQNHMTYSLQDVGGDANWQLVVEEGEMKVYRREVEENGIVLDPLKATHAVKGVTGHEVCNYFWNVDVRNDWETTIENFHVVETLADNAIIIYQTHKRVWPASQRDVLYLSVIRKIPALTENDPETWIVCNFSVDHDSAPLNNRCVRAKINVAMICQTLVSPPEGNQEISRDNILCKITYVANVNPGGWAPASVLRAVAKREYPKFLKRFTSYVQEKTAGKPILF
notes: Protein kinase; Fusion parts are not written as pieces
Q: Which results are given for B1?
A: binding result (DOC1-related protein): no binding; binding result [1]: no binding; binding result (GIP130c): binds
